Numbering of substitutions follows the chain as printed. In names and notes the source's numbering stands.

B1: CE7-variant1 (antibody, V domains shown)
VH: QVQLVQSGAEVKKPGASVKVSCKASGYTFTGYWMHWVRQAPGQGLEWIGEINPSNGRTNYNERFKSRVTLTVDKSISTAYMELSRLRSDDTAVYFCARDYYGTSYNFDYWGQGTLVTVSS
VL: DIQMTQSPSSLSASVGDRVTITCKANEDINNRLAWYQQKPGKAPKLLISGATNLVTGVPSRFSGSGSGKDYTLTISSLQPEDFATYYCQQYWSTPFTFGQGTKLEIKR
notes: Human IgG1 kappa, L234A L235A P331S; also called CE7-12-VHA-1NL1-VLA; humanized variant 1
B2: CE7-variant5 (antibody, V domains shown)
VH: B1 VH
VL: EIVMTQSPATLSVSPGERATLSCKANEDINNRLAWYQQKPGQAPRLLISGATNLVTGIPARFSGSGSGKEYTLTISSLQSEDFAVYYCQQYWSTPFTFGQGTKLEIKR
notes: Human IgG1 kappa, L234A L235A P331S; also called CE7-12-VHA-315-VLA; humanized variant 5
B3: CE7-variant13 (antibody, V domains shown)
VH: QVQLQQWGAGLLKPSETLSLTCAAYGYTFTGYWMHWIRQPPGKGLEWIGEINPSNGRTNYNERLKSRVTLSVDKSKNQASLKLSSVTAADTAVYFCARDYYGTSYNFDYWGQGTLVTVSS
VL: B1 VL
notes: Human IgG1 kappa, L234A L235A P331S; also called CE7-434-VHA-1NL1-VLA; humanized variant 13
B4: CE7-variant19 (antibody, V domains shown)
VH: B1 VH with K65Q, S66G, F95Y
VL: B1 VL with K24R, T52S, T56S
notes: CE7-1-2-VHB + CE7-1-NL1-VLC; human IgG1 kappa, L234A L235A P331S N297A (aglycosylated); also called humanized variant 19
B5: CE7-variant6 (antibody, V domains shown)
VH: B1 VH
VL: B2 VL with K24R, Y71F
notes: Human IgG1 kappa, L234A L235A P331S; also called CE7-12-VHA-315-VLB; humanized variant 6
B6: CE7-variant12 (antibody, V domains shown)
VH: B1 VH with K65Q, S66G, F95Y
VL: B2 VL with K24R, Y71F
notes: Human IgG1 kappa, L234A L235A P331S; also called CE7-12-VHB-315-VLB; humanized variant 12
B7: CE7-variant20 (antibody, V domains shown)
VH: B1 VH with K65Q, S66G, F95Y
VL: B1 VL with K24R, N26S, E27Q, D28G, T52S, T56S
notes: CE7-1-2-VHB + CE7-1-NL1-VLD; human IgG1 kappa, L234A L235A P331S N297A (aglycosylated); also called humanized variant 20
B8: CE7-variant23 (antibody, V domains shown)
VH: B1 VH with R63K, K65Q, S66G, F95Y
VL: B1 VL with K24R, T52S, T56S
notes: CE7-1-2-VHC + CE7-1-NL1-VLC; human IgG1 kappa, L234A L235A P331S N297A (aglycosylated); also called humanized variant 23
B9: CE7-variant14 (antibody, V domains shown)
VH: B3 VH
VL: B1 VL with K24R
notes: Human IgG1 kappa, L234A L235A P331S; also called CE7-434-VHA-1NL1-VLB; humanized variant 14
B10: CE7-variant16 (antibody, V domains shown)
VH: B3 VH
VL: B1 VL with K24Q, L73F, F83I
notes: Human IgG1 kappa, L234A L235A P331S; also called CE7-434-VHA-133-VLB; humanized variant 16
B11: CE7-variant15 (antibody, V domains shown)
VH: B3 VH
VL: B1 VL with F83I
notes: Human IgG1 kappa, L234A L235A P331S; also called CE7-434-VHA-133-VLA; humanized variant 15
B12: CE7-variant10 (antibody, V domains shown)
VH: B1 VH with K65Q, S66G, F95Y
VL: B1 VL with K24Q, L73F, F83I
notes: Human IgG1 kappa, L234A L235A P331S; also called CE7-12-VHB-133-VLB; humanized variant 10
B13: CE7-variant22 (antibody, V domains shown)
VH: B1 VH with R63K, K65Q, S66G, F95Y
VL: B1 VL with K24R
notes: CE7-1-2-VHC + CE7-1-NL1-VLB; human IgG1 kappa, L234A L235A P331S N297A (aglycosylated); also called humanized variant 22
B14: CE7-variant21 (antibody, V domains shown)
VH: B1 VH with R63K, K65Q, S66G, F95Y
VL: B1 VL
notes: CE7-1-2-VHC + CE7-1-NL1-VLA; human IgG1 kappa, L234A L235A P331S N297A (aglycosylated); also called humanized variant 21
B15: CE7-variant24 (antibody, V domains shown)
VH: B1 VH with R63K, K65Q, S66G, F95Y
VL: B1 VL with K24R, N26S, E27Q, D28G, T52S, T56S
notes: CE7-1-2-VHC + CE7-1-NL1-VLD; human IgG1 kappa, L234A L235A P331S N297A (aglycosylated); also called humanized variant 24
B16: CE7-variant9 (antibody, V domains shown)
VH: B1 VH with K65Q, S66G, F95Y
VL: B1 VL with F83I
notes: Human IgG1 kappa, L234A L235A P331S; also called CE7-12-VHB-133-VLA; humanized variant 9
B17: CE7-variant2 (antibody, V domains shown)
VH: B1 VH
VL: B1 VL with K24R
notes: Human IgG1 kappa, L234A L235A P331S; also called CE7-12-VHA-1NL1-VLB; humanized variant 2
B18: CE7-variant8 (antibody, V domains shown)
VH: B1 VH with K65Q, S66G, F95Y
VL: B1 VL with K24R
notes: Human IgG1 kappa, L234A L235A P331S; also called CE7-12-VHB-1NL1-VLB; humanized variant 8
B19: CE7-variant11 (antibody, V domains shown)
VH: B1 VH with K65Q, S66G, F95Y
VL: B2 VL
notes: Human IgG1 kappa, L234A L235A P331S; also called CE7-12-VHB-315-VLA; humanized variant 11
B20: CE7-variant4 (antibody)
heavy: QVQLVQSGAEVKKPGASVKVSCKASGYTFTGYWMHWVRQAPGQGLEWIGEINPSNGRTNYNERFKSRVTLTVDKSISTAYMELSRLRSDDTAVYFCARDYYGTSYNFDYWGQGTLVTVSSASTKGPSVFPLAPSSKSTSGGTAALGCLVKDYFPEPVTVSWNSGALTSGVHTFPAVLQSSGLYSLSSVVTVPSSSLGTQTYICNVNHKPSNTKVDKKVEPKSCDKTHTCPPCPAPEAAGGPSVFLFPPKPKDTLMISRTPEVTCVVVDVSHEDPEVKFNWYVDGVEVHNAKTKPREEQYNSTYRVVSVLTVLHQDWLNGKEYKCKVSNKALPASIEKTISKAKGQPREPQVYTLPPSREEMTKNQVSLTCLVKGFYPSDIAVEWESNGQPENNYKTTPPVLDSDGSFFLYSKLTVDKSRWQQGNVFSCSVMHEALHNHYTQKSLSLSPGK
light: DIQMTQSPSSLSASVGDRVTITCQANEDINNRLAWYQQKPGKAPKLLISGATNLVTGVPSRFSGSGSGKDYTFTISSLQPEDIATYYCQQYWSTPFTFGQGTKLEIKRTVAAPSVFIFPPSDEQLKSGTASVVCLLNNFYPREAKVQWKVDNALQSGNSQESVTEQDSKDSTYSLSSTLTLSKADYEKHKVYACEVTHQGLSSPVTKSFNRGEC
notes: Human IgG1 kappa, L234A L235A P331S; also called CE7-12-VHA-133-VLB; humanized variant 4
B21: CE7-variant25 (antibody, V domains shown)
VH: B1 VH with I48M, R63K, K65Q, S66G, F95Y
VL: B1 VL
notes: CE7-1-2-VHD + CE7-1-NL1-VLA; human IgG1 kappa, L234A L235A P331S N297A (aglycosylated); also called humanized variant 25
B22: CE7-variant18 (antibody)
heavy: QVQLQQWGAGLLKPSETLSLTCAAYGYTFTGYWMHWIRQPPGKGLEWIGEINPSNGRTNYNERLKSRVTLSVDKSKNQASLKLSSVTAADTAVYFCARDYYGTSYNFDYWGQGTLVTVSSASTKGPSVFPLAPSSKSTSGGTAALGCLVKDYFPEPVTVSWNSGALTSGVHTFPAVLQSSGLYSLSSVVTVPSSSLGTQTYICNVNHKPSNTKVDKKVEPKSCDKTHTCPPCPAPEAAGGPSVFLFPPKPKDTLMISRTPEVTCVVVDVSHEDPEVKFNWYVDGVEVHNAKTKPREEQYNSTYRVVSVLTVLHQDWLNGKEYKCKVSNKALPASIEKTISKAKGQPREPQVYTLPPSREEMTKNQVSLTCLVKGFYPSDIAVEWESNGQPENNYKTTPPVLDSDGSFFLYSKLTVDKSRWQQGNVFSCSVMHEALHNHYTQKSLSLSPGK
light: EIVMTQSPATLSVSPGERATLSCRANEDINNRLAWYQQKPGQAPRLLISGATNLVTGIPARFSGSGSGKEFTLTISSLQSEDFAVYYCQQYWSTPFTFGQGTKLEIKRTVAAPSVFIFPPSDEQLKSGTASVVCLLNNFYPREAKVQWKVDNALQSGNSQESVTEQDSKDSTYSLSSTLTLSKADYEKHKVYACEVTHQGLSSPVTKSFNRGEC
notes: Human IgG1 kappa, L234A L235A P331S; also called CE7-434-VHA-315-VLB; humanized variant 18
B23: CE7-variant17 (antibody, V domains shown)
VH: B3 VH
VL: B2 VL
notes: Human IgG1 kappa, L234A L235A P331S; also called CE7-434-VHA-315-VLA; humanized variant 17

T1 sequence (P32004 20-1120 limits assumed): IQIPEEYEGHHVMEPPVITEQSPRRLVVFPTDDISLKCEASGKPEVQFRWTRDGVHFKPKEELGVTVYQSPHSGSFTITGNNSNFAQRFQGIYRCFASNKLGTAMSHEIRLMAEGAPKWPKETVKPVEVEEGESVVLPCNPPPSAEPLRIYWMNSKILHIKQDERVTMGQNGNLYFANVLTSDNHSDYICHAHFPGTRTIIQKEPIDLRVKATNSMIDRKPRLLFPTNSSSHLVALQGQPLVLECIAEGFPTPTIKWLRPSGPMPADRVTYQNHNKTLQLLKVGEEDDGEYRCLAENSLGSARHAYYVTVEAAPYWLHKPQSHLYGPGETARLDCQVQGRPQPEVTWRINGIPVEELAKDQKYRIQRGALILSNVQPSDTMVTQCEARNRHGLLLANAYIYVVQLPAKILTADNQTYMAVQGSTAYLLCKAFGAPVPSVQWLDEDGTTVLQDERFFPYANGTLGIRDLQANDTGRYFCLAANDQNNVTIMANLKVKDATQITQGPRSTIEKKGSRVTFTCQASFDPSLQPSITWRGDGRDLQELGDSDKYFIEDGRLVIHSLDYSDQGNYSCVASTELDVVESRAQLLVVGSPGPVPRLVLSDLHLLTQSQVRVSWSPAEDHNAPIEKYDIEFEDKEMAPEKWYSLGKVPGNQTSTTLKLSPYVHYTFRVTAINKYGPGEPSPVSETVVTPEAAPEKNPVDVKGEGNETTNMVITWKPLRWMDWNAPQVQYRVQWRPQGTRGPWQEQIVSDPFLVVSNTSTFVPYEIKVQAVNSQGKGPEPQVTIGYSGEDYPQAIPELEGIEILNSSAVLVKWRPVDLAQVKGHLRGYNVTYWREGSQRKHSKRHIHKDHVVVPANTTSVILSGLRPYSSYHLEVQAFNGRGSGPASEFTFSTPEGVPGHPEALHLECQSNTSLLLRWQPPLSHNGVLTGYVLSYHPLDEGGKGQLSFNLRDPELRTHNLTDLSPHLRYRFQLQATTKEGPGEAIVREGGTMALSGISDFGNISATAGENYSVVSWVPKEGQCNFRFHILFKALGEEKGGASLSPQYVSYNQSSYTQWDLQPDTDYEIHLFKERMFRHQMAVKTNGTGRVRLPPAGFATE

The assay concerns the target T1, L1-CAM recombinant protein (His Tag), human (human, UniProt P32004 20-1120).
T1 construct: Bought protein; also called CD171; human L1-CAM; not shown: His tag
As to the kind of experiment: ELISA, human L1-CAM coated at 2 µg/ml.
Turning to B1, the EC50 came out at 0.0288 µg/mL.

Turning to B2, the EC50 came to 0.0282 µg/mL. As to B3, the EC50 amounted to 0.05 µg/mL. The same measure for B4: 0.0335 µg/mL; for B5: 0.0255 µg/mL; for B6: 0.0126 µg/mL. On to B7, for which the EC50 is 0.0317 µg/mL. The value for B8 was 0.037 µg/mL; that for B9 was 0.0157 µg/mL. The value for B10 was 0.0132 µg/mL; that for B11 was 0.0112 µg/mL. The same measure for B12: 0.0136 µg/mL. For B13, the EC50 amounted to 0.024 µg/mL. The value for B14 was 0.0299 µg/mL; that for B15 was 0.0396 µg/mL. For B16, the EC50 came to 0.0197 µg/mL.

Regarding B17, the EC50 was 0.0128 µg/mL.

On to B18, for which the EC50 is 0.0129 µg/mL. The same measure for B19: 0.0148 µg/mL; for B20: 0.012 µg/mL; for B21: 0.0272 µg/mL.

As to B22, the half-maximal effective concentration (EC50) came out at 0.00968 µg/mL. Regarding B23, the EC50 was 0.0108 µg/mL.

The values are drawn from US20260055182A1 (CIS BIOPHARMA, published 2026).
